Assay results as given in patent US20250082758A1.
Bridge positions count the residues as written; N and C are the ends. Ends that are not written are not given here. I, II: the chains in the order shown. * marks the point of attachment. Formula (I) = human serum albumin binder 2-[2-[2-[2-[2-[2-[2-(carbonylmethoxy)ethoxy]ethylamino]-2-oxo-ethoxy]ethoxy]ethylamino]-2-oxo-ethoxy]-5-(18-carboxyoctadecyl)benzoic acid, amide to Lys epsilon-N, O=C(O)CCCCCCCCCCCCCCCCCCc1ccc(OCC(=O)NCCOCCOCC(=O)NCCOCCOCC(=O)*)c(C(=O)O)c1

Key:
[1] = molecular target: human insulin receptor isoform B (human) (UniProt P06213); assay: SPA competition with [125I]-labelled human insulin, membranes of CHO cells overexpressing IR
[2] = molecular target: human insulin receptor isoform B (human) (UniProt P06213); assay: cell-based or functional assay

Sequence of UniProt P06213 (P06213 28-1382): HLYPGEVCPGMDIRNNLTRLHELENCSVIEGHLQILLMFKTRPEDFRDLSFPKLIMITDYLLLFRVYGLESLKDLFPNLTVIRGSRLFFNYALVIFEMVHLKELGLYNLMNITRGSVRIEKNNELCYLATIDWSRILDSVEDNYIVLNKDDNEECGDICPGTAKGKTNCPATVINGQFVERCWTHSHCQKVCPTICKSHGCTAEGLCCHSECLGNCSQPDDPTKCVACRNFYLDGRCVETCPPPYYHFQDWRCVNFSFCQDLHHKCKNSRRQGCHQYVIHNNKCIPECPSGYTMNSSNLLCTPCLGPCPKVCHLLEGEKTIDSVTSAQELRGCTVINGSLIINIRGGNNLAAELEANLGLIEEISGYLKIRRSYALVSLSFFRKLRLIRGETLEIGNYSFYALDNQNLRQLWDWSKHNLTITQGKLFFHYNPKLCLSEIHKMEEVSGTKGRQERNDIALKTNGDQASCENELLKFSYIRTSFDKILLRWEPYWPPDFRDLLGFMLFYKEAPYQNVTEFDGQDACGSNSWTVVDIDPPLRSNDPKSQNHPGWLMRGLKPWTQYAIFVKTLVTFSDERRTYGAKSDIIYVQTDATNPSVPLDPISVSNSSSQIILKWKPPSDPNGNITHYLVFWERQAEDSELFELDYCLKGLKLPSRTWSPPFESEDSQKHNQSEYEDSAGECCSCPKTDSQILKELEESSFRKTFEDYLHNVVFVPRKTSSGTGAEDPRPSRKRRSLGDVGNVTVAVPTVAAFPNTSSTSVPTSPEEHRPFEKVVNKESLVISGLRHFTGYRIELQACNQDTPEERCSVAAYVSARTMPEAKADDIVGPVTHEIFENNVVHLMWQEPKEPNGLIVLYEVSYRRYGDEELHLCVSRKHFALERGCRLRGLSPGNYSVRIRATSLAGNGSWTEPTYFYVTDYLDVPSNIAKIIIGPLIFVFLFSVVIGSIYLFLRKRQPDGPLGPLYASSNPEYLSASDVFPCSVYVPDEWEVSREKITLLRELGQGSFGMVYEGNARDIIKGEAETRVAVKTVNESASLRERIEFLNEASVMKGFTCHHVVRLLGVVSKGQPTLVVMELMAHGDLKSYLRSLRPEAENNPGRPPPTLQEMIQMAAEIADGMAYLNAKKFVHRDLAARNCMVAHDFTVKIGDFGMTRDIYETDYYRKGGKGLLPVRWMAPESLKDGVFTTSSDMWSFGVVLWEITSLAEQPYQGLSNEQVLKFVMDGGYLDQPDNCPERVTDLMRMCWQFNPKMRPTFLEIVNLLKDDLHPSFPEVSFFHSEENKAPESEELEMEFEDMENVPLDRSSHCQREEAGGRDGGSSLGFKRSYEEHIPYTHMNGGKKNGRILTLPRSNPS

Insulin receptor B binding affinity relative to human insulin [1]: < 2%
Insulin-receptor binding affinity relative to human insulin (relative to human insulin) [1]: 0.01
Autophosphorylation activity (relative to human insulin) (relative to human insulin) [2]: 0.07
B1: Conjugate 1: Arg(A5)Glu(A14)Arg(A18)Gly(A21)Glu(B16)His(B25)Arg(B27)Arg(B31)-insulin with the human serum albumin binder of Formula (I) on Lys(B29) (ligand)
chain 1: GIVERCCTSICSLEQLERYCG
chain 2: FVNQHLCGSHLVEALELVCGERGFHYRPK(Formula (I))TR
modifications: disulfide I:6-I:11, I:20-II:19, I:7-II:7
